Test results reported in PMC12670495 (Molecular Pharmaceutics, 2025).
Blank lines part the entries; values can stand above or below the binder they belong to.

Assays:
Settings in all cases: both partners purified
[1] = target: T1, Prostate-specific membrane antigen (PSMA), human (Homo sapiens, UniProt Q04609); assay: SPR; Biacore T200, multicycle kinetics; antibody captured on a Protein G chip (~50 RU), PSMA as analyte 25 to 1.5625 nM in HBS-EP+, 35 μL/min, association 600 s, dissociation 2400 s; 1-to-1 binding model with global Rmax
T1 construct: human FOLH1 (PSMA), UniProt Q04609; The methods of the multicycle SPR say only 'PSMA (R&D Systems)'; R&D Systems' recombinant human PSMA is, as far as recalled, the extracellular domain (about K44-A750) with a His tag; also called Human FOLH1; human PSMA; source: bought: R&D Systems (multicycle SPR)

mouse PSMA [2] = target: T2, mouse PSMA (Mus musculus, UniProt O35409); assay: SPR; Biacore T200, single-cycle kinetics at 25 °C; DOTA-conjugated antibodies captured on a Protein G chip (~50 RU), PSMA as analyte 12.5 to 50 nM in HBS-EP+, 40 μL/min; Langmuir (1:1) model
T2 construct: PSMA (Folh1) of mouse; also called murine PSMA
T2 sequence (O35409 whole entry): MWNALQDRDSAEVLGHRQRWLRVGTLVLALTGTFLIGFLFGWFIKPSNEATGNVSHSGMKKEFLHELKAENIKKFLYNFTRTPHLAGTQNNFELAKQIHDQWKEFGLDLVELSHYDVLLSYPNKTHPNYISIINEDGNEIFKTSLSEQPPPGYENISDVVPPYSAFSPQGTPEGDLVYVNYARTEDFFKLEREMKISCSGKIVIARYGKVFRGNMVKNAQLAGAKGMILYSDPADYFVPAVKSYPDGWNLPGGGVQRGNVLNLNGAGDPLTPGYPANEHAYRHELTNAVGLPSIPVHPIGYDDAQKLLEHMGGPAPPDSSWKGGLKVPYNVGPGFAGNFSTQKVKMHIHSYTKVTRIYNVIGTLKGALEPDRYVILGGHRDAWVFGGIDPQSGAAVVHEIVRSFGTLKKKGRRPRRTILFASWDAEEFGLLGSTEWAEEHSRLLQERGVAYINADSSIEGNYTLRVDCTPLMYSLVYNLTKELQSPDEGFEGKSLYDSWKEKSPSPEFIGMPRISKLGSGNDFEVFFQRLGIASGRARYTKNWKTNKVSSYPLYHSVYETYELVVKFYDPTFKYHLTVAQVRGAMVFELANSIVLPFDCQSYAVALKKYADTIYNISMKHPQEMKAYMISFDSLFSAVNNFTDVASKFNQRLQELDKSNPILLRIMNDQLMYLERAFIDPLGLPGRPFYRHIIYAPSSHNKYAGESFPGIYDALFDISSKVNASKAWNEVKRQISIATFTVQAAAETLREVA

mouse PSMA [3] = target: T3, mouse PSMA (Mus musculus, UniProt O35409); assay: SPR; Biacore T200, single-cycle kinetics, 25 °C, HBS-EP+; antibody-DOTA captured on a Protein G chip (~50 RU); PSMA as analyte, three-point 2-fold dilution 12.5-50 nM, 40 uL/min; association 200 s, dissociation 1500 s; Langmuir 1:1 fit
T3 construct: mouse prostate-specific membrane antigen (PSMA), purified protein; also called PSMA (Mouse); murine PSMA
T3 sequence (O35409 whole entry): as above

B1: ANT4044 IgG1 (antibody, V domains shown)
VH: EVQLVQSGAEVKKPGASVKVSCKASGYTFTEYTIHWVRQAPGKGLEWIGNINPNNGGTTYNQKFEDRVTITVDKSTSTAYMELSSLRSEDTAVYYCAAGWNFDYWGQGTTVTVSS
VL: DIQMTQSPSTLSASVGDRVTITCKASQDVGTAVDWYQQKPGQAPKLLIYWASTRHTGVPDRFSGSGSGTDFTLTISRLQPEDFAVYYCQQYNSYPLTFGQGTKVDIK
notes: VH of the humanized antibody ANT4044 (derived from murine J591); IgG1 heavy chain constant region, unmodified; VK of the humanized antibody ANT4044; constant region of the light chain is not described; IgG1; also called unmodified IgG1; ANT4044 unmodified IgG1 construct; source: CHO cells, transiently transfected; purified (Protein A, preparative SEC); copies: 2 + 2
Kd [1]: 0.734 nM
koff [1]: 7.88e-05 s⁻¹
kon [1]: 107000 M⁻¹ s⁻¹

B2: ANT4044 IgG1 (H310A, H435Q) (antibody, V domains shown)
VH: B1 VH
VL: B1 VL
notes: VH of ANT4044, as the heavy chain of m1; IgG1 heavy chain constant region with H310A and H435Q; VK of ANT4044, as the light chain of m1; constant region of the light chain is not described, as the light chain of m1; IgG1; Lead construct; the introduction names 'this engineered PSMA antibody' TLX592 without saying which variant is meant; also called modified IgG1 (H310A, H435Q); PK-modified …
Kd [1]: 0.737 nM
koff [1]: 7.48e-05 s⁻¹
kon [1]: 101000 M⁻¹ s⁻¹

B4: ANT4044-DOTA (antibody, V domains shown)
VH: B1 VH
VL: B1 VL
notes: VH of ANT4044, as the heavy chain of m1; VK of ANT4044, as the light chain of m1; constant region of the light chain is not described, as the light chain of m1; source: CHO cells, transiently transfected, purified; conjugated with NHS-DOTA; copies: 2 + 2
binding result (mouse PSMA [2]): no binding (tested: 12.5 to 50 nM tested)

More lines, now with the values ahead:

Kd [1]: 0.743 nM
koff [1]: 0.000104 s⁻¹
kon [1]: 139000 M⁻¹ s⁻¹
B3: ANT4044 IgG4 (S228P, L235E, H310A, H435Q) (antibody, V domains shown)
VH: B1 VH
VL: B1 VL
notes: VH of ANT4044, as the heavy chain of m1; IgG4 heavy chain constant region with S228P, L235E, H310A and H435Q; VK of ANT4044, as the light chain of m1; constant region of the light chain is not described, as the light chain of m1; IgG4; also called modified IgG4; source: CHO cells, transiently transfected; purified (Protein G, preparative SEC); copies: 2 + 2

binding result (mouse PSMA [3]): no binding (tested: 12.5 to 50 nM)
B5: ANT4044-DOTA (antibody, V domains shown)
VH: B1 VH
VL: B1 VL
